According to patent US11254722B2, “Recombinant proteins and uses thereof” (ACADEMIA SINICA, priority 2017, dated 2022):

Assays:
[1] = system: HUVEC cells; assay: HUVEC proliferation assay; assay type: cell-based; conditions: HGF-induced, HUVEC
In short: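 HUVEC, 5,000 per well, plated on poly-L-lysine in M199 with 1% FBS and HEPES. After 3 to 4 days of culture, growth read by Alamar blue incubation for 4 to 6 hours, fluorescence (RFU) at 544/590 nm.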

[2] = Pharmacokinetics in mice, serum by Fc ELISA; assay type: in vivo
Procedure: Grenier high binding ELISA plates were coated with 1 ug/ml goat anti-human Fc antibody (Jackson Immunoresearch) in PBS overnight, and then blocked with Assay Buffer (Invitrogen). Plates were incubated for 2 hours with Chimera or human Fc (Jackson Immunoresearch) as standard; followed by HRP-conjugated anti-human Fc antibody (Jackson Immunoresearch) for 60 minutes. HRP substrate, tetramethyl benzidine, was added; the reaction was stopped with 2 N […], and then the plate was read at 450 nm.
Mice were injected subcutaneously with 100 ug chimera 56662 (4 mg/kg). Two mice per group were used. Serum samples were taken at 0, 4, 24, 48, 72 hours after injection. The concentration of 56662 in serum was determined by use of the hu fc ELISA.
Serum half-life was measured in mice. 100 μg IGFBP3-Fc or 56662 (4 mg/kg) was injected subcutaneously and mouse serum was harvested at 0, 4, 24, 48, 72 hours after injection. Chimera concentration in serum was measured with the Fc ELISA. At 24 hours, the concentration of 56662 was over 2 μg/ml (FIG. 28), and the serum half-time was estimated to be about 43 hours.

56662: IGFBP3-Fc, SEQ ID NO: 7; unmodified IGFBP3 fused with the IgG Fc portion [compound 56662]
In vitro inhibition of proliferation, HGF [1]: yes (hep3B, HUVEC)
serum half-life ([2]; estimated): 20 to 40 h
concentration in serum at 24 hours ([2]; mice, 100 μg (4 mg/kg) subcutaneously, FIG. 28): over 2 μg/ml
serum half-time ([2]; mice, 100 μg (4 mg/kg) subcutaneously, estimated): about 43 hours
